According to patent US20060286611A1, “Antibodies against biotinylated histones and related proteins and assays related thereto” (Board of Regents of University of Nebraska, priority 2005, published 2006):
Entries after “also recorded” stand apart in the source; their conditions may differ. Non-standard residues stand in square brackets, D forms with d. No end group written: not given here. Me2 = dimethyl-lysine (dimethyl-epsilon-NH2-L-lysine); pS = N[C@@H](COP(=O)(O)O)C(=O)O

What follows are compounds tested against T1, biotinidase (Homo sapiens, UniProt P43251) (assay: Enzymatic biotinylation of synthetic histone H2A and H2A.X peptides by biotinidase). Settings: human plasma as source of biotinidase, 75 μmol/L biocytin, pH 8.0, 37° C., up to 45 minutes.
T1 construct: 60 μL of human plasma; from tissue; host or cells: human plasma
T1 sequence (P43251 22-523): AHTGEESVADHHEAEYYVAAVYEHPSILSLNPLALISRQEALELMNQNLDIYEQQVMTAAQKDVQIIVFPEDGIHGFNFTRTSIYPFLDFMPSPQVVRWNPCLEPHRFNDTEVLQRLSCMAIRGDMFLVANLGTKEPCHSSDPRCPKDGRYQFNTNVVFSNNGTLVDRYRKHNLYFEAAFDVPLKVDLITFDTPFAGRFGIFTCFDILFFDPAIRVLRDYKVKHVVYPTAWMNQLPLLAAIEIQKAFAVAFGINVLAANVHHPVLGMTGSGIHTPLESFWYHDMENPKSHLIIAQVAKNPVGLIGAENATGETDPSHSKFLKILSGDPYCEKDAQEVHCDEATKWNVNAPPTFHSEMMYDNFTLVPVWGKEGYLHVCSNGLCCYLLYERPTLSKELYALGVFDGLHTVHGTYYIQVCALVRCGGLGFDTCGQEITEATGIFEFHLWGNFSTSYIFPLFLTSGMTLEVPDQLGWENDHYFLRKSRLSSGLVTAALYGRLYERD
Type: biochemical
Source text: In Examples described above, the inventors developed a procedure to identify amino acid residues in histones that are targets for biotinylation. […] Amino acid substitutions (e.g., lysine-to-alanine substitutions) in synthetic peptides are used to corroborate identification of biotinylation sites. In addition, amino acid modifications (e.g., acetylation of lysines) in peptides can be used to investigate the cross-talk between biotinylation of histones and other known modifications of histones.
Peptides from both the N- and C-terminal regions of histone H2A and H2A.X were included in the analysis of biotinylation sites. […] Reactions were quenched by adding an equal volume of Tricine gel loading buffer (Invitrogen, Carlsbad, Calif.).

Compound | enzymatic biotinylation by biotinidase, peptide-bound biotin probed with streptavidin peroxidase
K13,15A,T16S12-20: T16S12-20 with both lysine residues substituted with alanine (AAAASRSSR) | no biotinylation was detectable
SEQ ID NO:74: histone H2A peptide containing acetylated K9 and free K5 (SGRGKTGGK(Ac)) | not a target for biotinylation
K127,129A122-129: C122-129 with K127 and K129 substituted with alanine (SHHAAAGA) | considerable decrease of biotinylation
SEQ ID NO:76: histone H2A N7-14 with acetylation of K13 (GGKARAK(Ac)A) | decreased the biotinylation of K9
K125,129A122-129: C122-129 with K125 and K129 substituted with alanine (SHHAAKGA) | considerable decrease of biotinylation
K125,127,129A122-129: C122-129 with all lysine residues substituted with alanine (SHHAAAGA) | no biotinylation was detectable
Q6T,K9A1-9: Q6T1-9 with K9 substituted with alanine (SGRGKTGGA) | substantially decreased biotinylation
SEQ ID NO:75: histone H2A N7-14 with dimethylation of K13 (GGKARAK(Me2)A) | decreased the biotinylation of K9
K13,15A12-20: histone H2A N12-20, both lysine residues substituted with alanine (AAAATRSSR) | no biotinylation was detectable
K13A,T16S12-20: T16S12-20 with K13 substituted with alanine (AAAKSRSSR) | No biotinylation was detectable
K5,9A1-9: histone H2A N1-9, both lysine residues substituted with alanines (SGRGAQGGA) | no biotinylation was detectable
Q6T,K5A1-9: Q6T1-9 with K5 substituted with alanine (SGRGATGGK) | decreased biotinylation only moderately
ATVGPKAPSG [Peptide C122-131, C-terminus of histone H2A.X, amino acids 122-131] | not biotinylated
SEQ ID NO:73: histone H2A N1-9 with acetylation of K5 (SGRGK(Ac)TGGK) | moderate decrease
K15A,T16S12-20: T16S12-20 with K15 substituted with alanine (AKAASRSSR) | decreased moderately
AKAKSRSSR [Peptide T16S12-20, N-terminus of histone H2A.X, amino acids 12-20] | good targets for biotinylation; also recorded: biotinylated only moderately
SGRGKTGGK [Peptide Q6T1-9, N-terminus of histone H2A.X, amino acids 1-9] | good targets for biotinylation
K5A1-9: histone H2A N1-9, K5 substituted with alanine (SGRGAQGGK) [Peptide K5A1-9] | did not decrease biotinylation
GKKATQASQEY [Peptide C132-142, C-terminus of histone H2A.X, amino acids 132-142] | not biotinylated
K15A12-20: histone H2A N12-20, K15 substituted with alanine (AKAATRSSR) [Peptide K15A12-20] | good target for biotinylation
K125,127A122-129: C122-129 with K125 and K127 substituted with alanine (SHHAAAGK) | decreased only moderately
GGKARAKA [Peptide N7-14, histone H2A amino acids 7-14] | good target for biotinylation; also recorded: heavily biotinylated; also recorded: moderate target for biotinylation
AKAKTRSSR [Peptide N12-20, histone H2A amino acids 12-20] | not a good target; also recorded: poor target for biotinylation
K13A12-20: histone H2A N12-20, K13 substituted with alanine (AAAKTRSSR) [Peptide K13A12-20] | did not render K15 a good target
SHHKAKGK [Peptide C122-129, histone H2A amino acids 122-129] | good target for biotinylation; also recorded: good substrate for biotinylation

What follows are compounds tested against T1, biotinidase (assay: Enzymatic biotinylation of synthetic histone H3 peptides by biotinidase). Settings: biotinidase and biocytin, 45 min.
Type: biochemical

Compound | enzymatic biotinylation by biotinidase, peptide-bound biotin probed with streptavidin-peroxidase
K4,9A1-9: histone H3 amino acids 1 to 9, K4 and K9 substituted by alanine (ARTAQTARA) | no binding of biotin was detectable
K14A9-16: histone H3 amino acids 9 to 16, K14 substituted with alanine (KSTGGAAP) [Peptide K14A9-16] | heavily biotinylated
NCCC[C@H](N)C(=O)O [ornithine] | not biotinylated
K23A16-23: histone H3 amino acids 16 to 23, K23 substituted with alanine (PRKQLATA) [Peptide K23A16-23] | weak
K9A9-16: histone H3 amino acids 9 to 16, K9 substituted with alanine (ASTGGKAP) [Peptide K9A9-16] | poor target for biotinylation
K23A18-25: histone H3 amino acids 18-25, K23 substituted with alanine (KQLATAAA) [Peptide K23A18-25] | heavily biotinylated
K4A1-9: histone H3 amino acids 1 to 9, K4 substituted with alanine (ARTAQTARK) [Peptide K4A1-9] | barely detectable
K18A16-23: histone H3 amino acids 16 to 23, K18 substituted with alanine (PRAQLATK) [Peptide K18A16-23] | weak
TARKSTGG [Peptide N6-13, native unmodified peptide, position 6-13 in histone H3] | moderate target for biotinylation
TARKS(p)TGG (TARK[pS]TGG) [S10S(p)6-13, histone H3 6-13, phosphorylation of S10] | poor target for biotinylation
N9-16: histone H3 amino acids 9-16, including K9 and K14 (KSTGGKAP; UniProt P68431 10-17, looked up, fragment) [Peptide N9-16] | relatively poor targets for biotinylation
TAAKSTGG [Peptide R8A6-13, histone H3 6-13, R8 substituted with alanine] | increased considerably
TARASTGG [Peptide K9A6-13, histone H3 6-13, K9 substituted with alanine] | no biotinylation was observed
N16-23: histone H3 amino acids 16-23, including K18 and K23 (PRKQLATK; UniProt P68431 17-24, looked up, fragment) [Peptide N16-23] | moderate target for biotinylation
N18-25: histone H3 amino acids 18-25, including K18 and K23 (RKQLATKA; listed as Homo sapiens) [Peptide N18-25] | better substrate for biotinylation
K18,23A16-23: histone H3 amino acids 16 to 23, K18 and K23 substituted with alanine (PRAQLATA) | no binding of biotin was detectable
